Laboratory results taken from US20120064110A1.
*: point of attachment. NH(propargyl) = C#CCN*

Test: Circular dichroism measurement of peptide secondary structure
Type: physicochemical
Settings: aqueous environments; 208 nm and 222 nm signal; FIG. 1 and FIG. 2

Row | Substance | α-helical structure content by circular dichroism
1 | Acetyl-AADAADKEAAQKAIDAATNAVNAAIEAANAAGG-NHCH2CCH (Ac-AADAADKEAAQKAIDAATNAVNAAIEAANAAGG-{NH(propargyl)}; SMILES C#CCNC(=O)CNC(=O)CNC(=O)[C@H](C)NC(=O)[C@H](C)NC(=O)[C@H](CC(N)=O)NC(=O)[C@H](C)NC(=O)[C@H](C)NC(=O)[C@H](CCC(=O)O)NC(=O)[C@@H](NC(=O)[C@H](C)NC(=O)[C@H](C)NC(=O)[C@H](CC(N)=O)NC(=O)[C@@H](NC(=O)[C@H](C)NC(=O)[C@H](CC(N)=O)NC(=O)[C@@H](NC(=O)[C@H](C)NC(=O)[C@H](C)NC(=O)[C@H](CC(=O)O)NC(=O)[C@@H](NC(=O)[C@H](C)NC(=O)[C@H](CCCCN)NC(=O)[C@H](CCC(N)=O)NC(=O)[C@H](C)NC(=O)[C@H](C)NC(=O)[C@H](CCC(=O)O)NC(=O)[C@H](CCCCN)NC(=O)[C@H](CC(=O)O)NC(=O)[C@H](C)NC(=O)[C@H](C)NC(=O)[C@H](CC(=O)O)NC(=O)[C@H](C)NC(=O)[C@H](C)NC(C)=O)[C@@H](C)CC)[C@@H](C)O)C(C)C)[C@@H](C)CC) [HA54.1] | More significant improvement of the α-helical content
2 | Acetyl-AADAADKEAAQKALDAATNALNAAIEAANAAGG-NHCH2CCH (Ac-AADAADKEAAQKALDAATNALNAAIEAANAAGG-{NH(propargyl)}; SMILES C#CCNC(=O)CNC(=O)CNC(=O)[C@H](C)NC(=O)[C@H](C)NC(=O)[C@H](CC(N)=O)NC(=O)[C@H](C)NC(=O)[C@H](C)NC(=O)[C@H](CCC(=O)O)NC(=O)[C@@H](NC(=O)[C@H](C)NC(=O)[C@H](C)NC(=O)[C@H](CC(N)=O)NC(=O)[C@H](CC(C)C)NC(=O)[C@H](C)NC(=O)[C@H](CC(N)=O)NC(=O)[C@@H](NC(=O)[C@H](C)NC(=O)[C@H](C)NC(=O)[C@H](CC(=O)O)NC(=O)[C@H](CC(C)C)NC(=O)[C@H](C)NC(=O)[C@H](CCCCN)NC(=O)[C@H](CCC(N)=O)NC(=O)[C@H](C)NC(=O)[C@H](C)NC(=O)[C@H](CCC(=O)O)NC(=O)[C@H](CCCCN)NC(=O)[C@H](CC(=O)O)NC(=O)[C@H](C)NC(=O)[C@H](C)NC(=O)[C@H](CC(=O)O)NC(=O)[C@H](C)NC(=O)[C@H](C)NC(C)=O)[C@@H](C)O)[C@@H](C)CC) [SEQHAS] | More significant improvement of the α-helical content
3 | Acetyl-AADAADKEAKQKAIDAATNAVNSAIEAANKAGG-NHCH2CCH (Ac-AADAADKEAKQKAIDAATNAVNSAIEAANKAGG-{NH(propargyl)}; SMILES C#CCNC(=O)CNC(=O)CNC(=O)[C@H](C)NC(=O)[C@H](CCCCN)NC(=O)[C@H](CC(N)=O)NC(=O)[C@H](C)NC(=O)[C@H](C)NC(=O)[C@H](CCC(=O)O)NC(=O)[C@@H](NC(=O)[C@H](C)NC(=O)[C@H](CO)NC(=O)[C@H](CC(N)=O)NC(=O)[C@@H](NC(=O)[C@H](C)NC(=O)[C@H](CC(N)=O)NC(=O)[C@@H](NC(=O)[C@H](C)NC(=O)[C@H](C)NC(=O)[C@H](CC(=O)O)NC(=O)[C@@H](NC(=O)[C@H](C)NC(=O)[C@H](CCCCN)NC(=O)[C@H](CCC(N)=O)NC(=O)[C@H](CCCCN)NC(=O)[C@H](C)NC(=O)[C@H](CCC(=O)O)NC(=O)[C@H](CCCCN)NC(=O)[C@H](CC(=O)O)NC(=O)[C@H](C)NC(=O)[C@H](C)NC(=O)[C@H](CC(=O)O)NC(=O)[C@H](C)NC(=O)[C@H](C)NC(C)=O)[C@@H](C)CC)[C@@H](C)O)C(C)C)[C@@H](C)CC) [HA54.4] | More significant improvement of the α-helical content
4 | Acetyl-Ala-Ala-Asp-Lys-Ala-Ser-Thr-Gln-Ala-Ala-Ile-Asp-Gly-Ala-Thr-Asn-Ala-Val-Asn-Ser-Ala-Ile-Glu-Ala-Gly-Gly-NHCH2CCH (Ac-AADKASTQAAIDGATNAVNSAIEAGG-{NH(propargyl)}; SMILES C#CCNC(=O)CNC(=O)CNC(=O)[C@H](C)NC(=O)[C@H](CCC(=O)O)NC(=O)[C@@H](NC(=O)[C@H](C)NC(=O)[C@H](CO)NC(=O)[C@H](CC(N)=O)NC(=O)[C@@H](NC(=O)[C@H](C)NC(=O)[C@H](CC(N)=O)NC(=O)[C@@H](NC(=O)[C@H](C)NC(=O)CNC(=O)[C@H](CC(=O)O)NC(=O)[C@@H](NC(=O)[C@H](C)NC(=O)[C@H](C)NC(=O)[C@H](CCC(N)=O)NC(=O)[C@@H](NC(=O)[C@H](CO)NC(=O)[C@H](C)NC(=O)[C@H](CCCCN)NC(=O)[C@H](CC(=O)O)NC(=O)[C@H](C)NC(=O)[C@H](C)NC(C)=O)[C@@H](C)O)[C@@H](C)CC)[C@@H](C)O)C(C)C)[C@@H](C)CC) [A2] | less optimal for forming α-helical structures in aqueous environments
